Positions of bridges follow the written chain, without caps; N, C: chain ends. Non-standard residues stand in square brackets, D forms with d. Hyp = O=C(O)[C@@H]1C[C@@H](O)CN1; Pen = CC(C)(S)[C@H](N)C(=O)O; Orn = NCCC[C@H](N)C(=O)O; Thz = O=C(O)[C@@H]1CSCN1; Dab = NCC[C@H](N)C(=O)O; Aib = CC(C)(N)C(=O)O
Experiments:
[1] = target: human melanocortin 1 receptor (human, UniProt Q01726 1-317); test: cell-based or functional assay
[2] = target: human melanocortin 4 receptor (human, UniProt P32245 1-332); test: cell-based or functional assay
Sequence of human melanocortin 4 receptor (P32245 whole entry): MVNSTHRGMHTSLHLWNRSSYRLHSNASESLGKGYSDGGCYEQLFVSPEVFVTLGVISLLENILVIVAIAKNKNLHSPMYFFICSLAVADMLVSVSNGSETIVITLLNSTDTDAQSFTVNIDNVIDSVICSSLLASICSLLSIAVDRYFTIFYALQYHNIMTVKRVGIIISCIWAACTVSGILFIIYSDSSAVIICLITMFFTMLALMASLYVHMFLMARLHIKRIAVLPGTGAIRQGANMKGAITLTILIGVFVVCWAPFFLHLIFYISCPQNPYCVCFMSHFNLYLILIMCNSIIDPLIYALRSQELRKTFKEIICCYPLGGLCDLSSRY

Sequence of human melanocortin 1 receptor (Q01726 whole entry): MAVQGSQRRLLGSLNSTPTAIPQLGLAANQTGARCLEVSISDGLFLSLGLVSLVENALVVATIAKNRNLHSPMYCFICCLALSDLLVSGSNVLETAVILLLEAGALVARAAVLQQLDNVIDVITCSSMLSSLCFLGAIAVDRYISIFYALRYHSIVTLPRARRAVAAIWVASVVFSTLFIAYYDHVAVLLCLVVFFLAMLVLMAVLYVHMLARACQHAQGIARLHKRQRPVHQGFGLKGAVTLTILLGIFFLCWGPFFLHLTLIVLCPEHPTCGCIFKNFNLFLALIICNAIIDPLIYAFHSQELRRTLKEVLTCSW

B1: Chem. 118 (peptide)
peptide: cyclo(C[Thz]H[dF]HWCKR)
modifications: disulfide 1-7
SMILES: N=C(N)NCCC[C@@H]1NC(=O)[C@H](CCCCN)NC(=O)[C@@H]2CSSC[C@H](NC1=O)C(=O)N1CSC[C@H]1C(=O)N[C@@H](Cc1c[nH]cn1)C(=O)N[C@H](Cc1ccccc1)C(=O)N[C@@H](Cc1c[nH]cn1)C(=O)N[C@@H](Cc1c[nH]c3ccccc13)C(=O)N2
MC1R cAMP EC50 [1]: 4380 nM
MC4R cAMP EC50 [2]: 3.53 nM

B2: Chem. 116 (peptide)
peptide: cyclo(C[Thz]H[dF]HWC[Orn][Orn]AAW)
modifications: disulfide 1-7
SMILES: C[C@@H]1NC(=O)[C@H](C)NC(=O)[C@H](CCCN)NC(=O)[C@H](CCCN)NC(=O)[C@@H]2CSSC[C@H](NC(=O)[C@H](Cc3c[nH]c4ccccc34)NC1=O)C(=O)N1CSC[C@H]1C(=O)N[C@@H](Cc1c[nH]cn1)C(=O)N[C@H](Cc1ccccc1)C(=O)N[C@@H](Cc1c[nH]cn1)C(=O)N[C@@H](Cc1c[nH]c3ccccc13)C(=O)N2
MC1R cAMP EC50 [1]: 231 nM
MC4R cAMP EC50 [2]: 0.12 nM

B3: Chem. 86 (peptide)
peptide: cyclo(C[dK]H[dF]HWC[dK]H[dF]HW)
modifications: disulfide 1-7
SMILES: NCCCC[C@H]1NC(=O)[C@@H]2CSSC[C@H](NC(=O)[C@H](Cc3c[nH]c4ccccc34)NC(=O)[C@H](Cc3c[nH]cn3)NC(=O)[C@@H](Cc3ccccc3)NC(=O)[C@H](Cc3c[nH]cn3)NC1=O)C(=O)N[C@H](CCCCN)C(=O)N[C@@H](Cc1c[nH]cn1)C(=O)N[C@H](Cc1ccccc1)C(=O)N[C@@H](Cc1c[nH]cn1)C(=O)N[C@@H](Cc1c[nH]c3ccccc13)C(=O)N2
MC1R cAMP EC50 [1]: 147 nM

B4: Chem. 33 (peptide)
peptide: cyclo(C[dP]H[dF]RWC[dP]H[dF]RW)
modifications: disulfide 1-7
SMILES: N=C(N)NCCC[C@@H]1NC(=O)[C@@H](Cc2ccccc2)NC(=O)[C@H](Cc2c[nH]cn2)NC(=O)[C@H]2CCCN2C(=O)[C@@H]2CSSC[C@H](NC(=O)[C@H](Cc3c[nH]c4ccccc34)NC1=O)C(=O)N1CCC[C@@H]1C(=O)N[C@@H](Cc1c[nH]cn1)C(=O)N[C@H](Cc1ccccc1)C(=O)N[C@@H](CCCNC(=N)N)C(=O)N[C@@H](Cc1c[nH]c3ccccc13)C(=O)N2
MC1R cAMP EC50 [1]: > 1 nM

B5: Chem. 38 (peptide)
peptide: cyclo(C[Aib][Hyp][dF]RWC[Aib][Hyp][dF]RW)
modifications: disulfide 1-7
SMILES: CC1(C)NC(=O)[C@@H]2CSSC[C@H](NC(=O)[C@H](Cc3c[nH]c4ccccc34)NC(=O)[C@H](CCCNC(=N)N)NC(=O)[C@@H](Cc3ccccc3)NC(=O)[C@@H]3C[C@@H](O)CN3C1=O)C(=O)NC(C)(C)C(=O)N1C[C@H](O)C[C@H]1C(=O)N[C@H](Cc1ccccc1)C(=O)N[C@@H](CCCNC(=N)N)C(=O)N[C@@H](Cc1c[nH]c3ccccc13)C(=O)N2
MC1R cAMP EC50 [1]: > 3.7 nM

B6: Chem. 113 (peptide)
peptide: cyclo(C[Thz]H[dF]HWCARERR)
modifications: disulfide 1-7
SMILES: C[C@@H]1NC(=O)[C@@H]2CSSC[C@H](NC(=O)[C@H](CCCNC(=N)N)NC(=O)[C@H](CCCNC(=N)N)NC(=O)[C@H](CCC(=O)O)NC(=O)[C@H](CCCNC(=N)N)NC1=O)C(=O)N1CSC[C@H]1C(=O)N[C@@H](Cc1c[nH]cn1)C(=O)N[C@H](Cc1ccccc1)C(=O)N[C@@H](Cc1c[nH]cn1)C(=O)N[C@@H](Cc1c[nH]c3ccccc13)C(=O)N2
MC1R cAMP EC50 [1]: 42.2 nM
MC4R cAMP EC50 [2]: 0.02 nM

B7: Chem. 46 (peptide)
peptide: cyclo(C[Aib]H[dF][Dab]WC[Aib]H[dF][Dab]W)
modifications: disulfide 1-7
SMILES: CC1(C)NC(=O)[C@@H]2CSSC[C@H](NC(=O)[C@H](Cc3c[nH]c4ccccc34)NC(=O)[C@H](CCN)NC(=O)[C@@H](Cc3ccccc3)NC(=O)[C@H](Cc3c[nH]cn3)NC1=O)C(=O)NC(C)(C)C(=O)N[C@@H](Cc1c[nH]cn1)C(=O)N[C@H](Cc1ccccc1)C(=O)N[C@@H](CCN)C(=O)N[C@@H](Cc1c[nH]c3ccccc13)C(=O)N2
MC1R cAMP EC50 [1]: > 5.5 nM

B8: Chem. 115 (peptide)
peptide: cyclo(C[Thz]H[dF]HWCK[Orn]AAW)
modifications: disulfide 1-7
SMILES: C[C@@H]1NC(=O)[C@H](C)NC(=O)[C@H](CCCN)NC(=O)[C@H](CCCCN)NC(=O)[C@@H]2CSSC[C@H](NC(=O)[C@H](Cc3c[nH]c4ccccc34)NC1=O)C(=O)N1CSC[C@H]1C(=O)N[C@@H](Cc1c[nH]cn1)C(=O)N[C@H](Cc1ccccc1)C(=O)N[C@@H](Cc1c[nH]cn1)C(=O)N[C@@H](Cc1c[nH]c3ccccc13)C(=O)N2
MC1R cAMP EC50 [1]: 134 nM
MC4R cAMP EC50 [2]: 0.1 nM

B9: Chem. 43 (peptide)
peptide: CXHFXWCXHFXW
modifications: Aib 2, 8; D-Phe 4, 10; AGP 5, 11; disulphide Cys1-Cys7; head-to-tail amide Cys1-Trp12
MC1R cAMP EC50 [1]: 46.9 nM

B10: Chem. 34 (peptide)
peptide: cyclo(C[dV]H[dF]RWC[dV]H[dF]RW)
modifications: disulfide 1-7
SMILES: CC(C)[C@H]1NC(=O)[C@@H]2CSSC[C@H](NC(=O)[C@H](Cc3c[nH]c4ccccc34)NC(=O)[C@H](CCCNC(=N)N)NC(=O)[C@@H](Cc3ccccc3)NC(=O)[C@H](Cc3c[nH]cn3)NC1=O)C(=O)N[C@H](C(C)C)C(=O)N[C@@H](Cc1c[nH]cn1)C(=O)N[C@H](Cc1ccccc1)C(=O)N[C@@H](CCCNC(=N)N)C(=O)N[C@@H](Cc1c[nH]c3ccccc13)C(=O)N2
MC1R cAMP EC50 [1]: 2.6 nM

B11: Chem. 117 (peptide)
peptide: cyclo(C[Thz]H[dF]HW[Pen]KKAAW)
modifications: disulfide 1-7
SMILES: C[C@@H]1NC(=O)[C@H](C)NC(=O)[C@H](CCCCN)NC(=O)[C@H](CCCCN)NC(=O)[C@H]2NC(=O)[C@H](Cc3c[nH]c4ccccc34)NC(=O)[C@H](Cc3c[nH]cn3)NC(=O)[C@@H](Cc3ccccc3)NC(=O)[C@H](Cc3c[nH]cn3)NC(=O)[C@@H]3CSCN3C(=O)[C@H](CSSC2(C)C)NC(=O)[C@H](Cc2c[nH]c3ccccc23)NC1=O
MC1R cAMP EC50 [1]: 168 nM
MC4R cAMP EC50 [2]: 0.2 nM

B12: Chem. 6 (peptide)
peptide: cyclo(CH[dF]RW[dA]CH[dF]RW[dA])
modifications: disulfide 1-7
SMILES: C[C@H]1NC(=O)[C@H](Cc2c[nH]c3ccccc23)NC(=O)[C@H](CCCNC(=N)N)NC(=O)[C@@H](Cc2ccccc2)NC(=O)[C@H](Cc2c[nH]cn2)NC(=O)[C@@H]2CSSC[C@H](NC1=O)C(=O)N[C@@H](Cc1c[nH]cn1)C(=O)N[C@H](Cc1ccccc1)C(=O)N[C@@H](CCCNC(=N)N)C(=O)N[C@@H](Cc1c[nH]c3ccccc13)C(=O)N[C@H](C)C(=O)N2
MC1R cAMP EC50 [1]: 2.35 nM

B13: Chem. 41 (peptide)
peptide: CXHFXWCXHFXW
modifications: Aib 2, 8; D-Phe 4, 10; Cit 5, 11; disulphide Cys1-Cys7; head-to-tail amide Cys1-Trp12
MC1R cAMP EC50 [1]: 137 nM

B14: Chem. 121 (peptide)
peptide: cyclo(CPH[dF]HWCAH[dK][dK]R)
modifications: disulfide 1-7
SMILES: C[C@@H]1NC(=O)[C@@H]2CSSC[C@H](NC(=O)[C@H](CCCNC(=N)N)NC(=O)[C@@H](CCCCN)NC(=O)[C@@H](CCCCN)NC(=O)[C@H](Cc3c[nH]cn3)NC1=O)C(=O)N1CCC[C@H]1C(=O)N[C@@H](Cc1c[nH]cn1)C(=O)N[C@H](Cc1ccccc1)C(=O)N[C@@H](Cc1c[nH]cn1)C(=O)N[C@@H](Cc1c[nH]c3ccccc13)C(=O)N2
MC1R cAMP EC50 [1]: 189 nM
MC4R cAMP EC50 [2]: 0.24 nM

B15: Chem. 120 (peptide)
peptide: cyclo(C[Thz]H[dF]HWCAHE[Orn]R)
modifications: disulfide 1-7
SMILES: C[C@@H]1NC(=O)[C@@H]2CSSC[C@H](NC(=O)[C@H](CCCNC(=N)N)NC(=O)[C@H](CCCN)NC(=O)[C@H](CCC(=O)O)NC(=O)[C@H](Cc3c[nH]cn3)NC1=O)C(=O)N1CSC[C@H]1C(=O)N[C@@H](Cc1c[nH]cn1)C(=O)N[C@H](Cc1ccccc1)C(=O)N[C@@H](Cc1c[nH]cn1)C(=O)N[C@@H](Cc1c[nH]c3ccccc13)C(=O)N2
MC1R cAMP EC50 [1]: 294 nM
MC4R cAMP EC50 [2]: 0.08 nM

B16: Chem. 21 (peptide)
peptide: CAHFXWCAHFXW
modifications: D-Phe 4, 10; Arg(NO2) 5, 11; disulphide Cys1-Cys7; head-to-tail amide Cys1-Trp12
MC1R cAMP EC50 [1]: > 4 nM

B17: Chem. 119 (peptide)
peptide: cyclo(C[Thz]H[dF]HWCA[Orn]E[Orn]R)
modifications: disulfide 1-7
SMILES: C[C@@H]1NC(=O)[C@@H]2CSSC[C@H](NC(=O)[C@H](CCCNC(=N)N)NC(=O)[C@H](CCCN)NC(=O)[C@H](CCC(=O)O)NC(=O)[C@H](CCCN)NC1=O)C(=O)N1CSC[C@H]1C(=O)N[C@@H](Cc1c[nH]cn1)C(=O)N[C@H](Cc1ccccc1)C(=O)N[C@@H](Cc1c[nH]cn1)C(=O)N[C@@H](Cc1c[nH]c3ccccc13)C(=O)N2
MC1R cAMP EC50 [1]: 99.6 nM
MC4R cAMP EC50 [2]: 0.06 nM

B18: Chem. 114 (peptide)
peptide: cyclo(C[Thz]H[dF]HWCKA[dK]AW)
modifications: disulfide 1-7
SMILES: C[C@@H]1NC(=O)[C@H](CCCCN)NC(=O)[C@@H]2CSSC[C@H](NC(=O)[C@H](Cc3c[nH]c4ccccc34)NC(=O)[C@H](C)NC(=O)[C@@H](CCCCN)NC1=O)C(=O)N1CSC[C@H]1C(=O)N[C@@H](Cc1c[nH]cn1)C(=O)N[C@H](Cc1ccccc1)C(=O)N[C@@H](Cc1c[nH]cn1)C(=O)N[C@@H](Cc1c[nH]c3ccccc13)C(=O)N2
MC1R cAMP EC50 [1]: 114 nM
MC4R cAMP EC50 [2]: 0.04 nM

Reference: patent US20200223889A1 (Novo Nordisk, published 2020)
